We go through ten molecules from patent publication US20250382373A1 (BIOCYTOGEN PHARMACEUTICALS BEIJING, published 2025).

Experiment [1] has as its target T1, monkey MET on fasMET-NIH3T3 cells (monkey (Macaca fascicularis)). As to the kind of experiment: flow cytometry on fasMET-NIH3T3 cells. On the technique in general: A flow cytometer gives signals particle by particle.
Experiment [2] deals with human MET on hMET-NIH3T3 cells (human, UniProt P08581 25-1390). The experiment is described as follows: flow cytometry on hMET-NIH3T3 cells.
Chain of human MET on hMET-NIH3T3 cells (P08581 25-1390 limits assumed): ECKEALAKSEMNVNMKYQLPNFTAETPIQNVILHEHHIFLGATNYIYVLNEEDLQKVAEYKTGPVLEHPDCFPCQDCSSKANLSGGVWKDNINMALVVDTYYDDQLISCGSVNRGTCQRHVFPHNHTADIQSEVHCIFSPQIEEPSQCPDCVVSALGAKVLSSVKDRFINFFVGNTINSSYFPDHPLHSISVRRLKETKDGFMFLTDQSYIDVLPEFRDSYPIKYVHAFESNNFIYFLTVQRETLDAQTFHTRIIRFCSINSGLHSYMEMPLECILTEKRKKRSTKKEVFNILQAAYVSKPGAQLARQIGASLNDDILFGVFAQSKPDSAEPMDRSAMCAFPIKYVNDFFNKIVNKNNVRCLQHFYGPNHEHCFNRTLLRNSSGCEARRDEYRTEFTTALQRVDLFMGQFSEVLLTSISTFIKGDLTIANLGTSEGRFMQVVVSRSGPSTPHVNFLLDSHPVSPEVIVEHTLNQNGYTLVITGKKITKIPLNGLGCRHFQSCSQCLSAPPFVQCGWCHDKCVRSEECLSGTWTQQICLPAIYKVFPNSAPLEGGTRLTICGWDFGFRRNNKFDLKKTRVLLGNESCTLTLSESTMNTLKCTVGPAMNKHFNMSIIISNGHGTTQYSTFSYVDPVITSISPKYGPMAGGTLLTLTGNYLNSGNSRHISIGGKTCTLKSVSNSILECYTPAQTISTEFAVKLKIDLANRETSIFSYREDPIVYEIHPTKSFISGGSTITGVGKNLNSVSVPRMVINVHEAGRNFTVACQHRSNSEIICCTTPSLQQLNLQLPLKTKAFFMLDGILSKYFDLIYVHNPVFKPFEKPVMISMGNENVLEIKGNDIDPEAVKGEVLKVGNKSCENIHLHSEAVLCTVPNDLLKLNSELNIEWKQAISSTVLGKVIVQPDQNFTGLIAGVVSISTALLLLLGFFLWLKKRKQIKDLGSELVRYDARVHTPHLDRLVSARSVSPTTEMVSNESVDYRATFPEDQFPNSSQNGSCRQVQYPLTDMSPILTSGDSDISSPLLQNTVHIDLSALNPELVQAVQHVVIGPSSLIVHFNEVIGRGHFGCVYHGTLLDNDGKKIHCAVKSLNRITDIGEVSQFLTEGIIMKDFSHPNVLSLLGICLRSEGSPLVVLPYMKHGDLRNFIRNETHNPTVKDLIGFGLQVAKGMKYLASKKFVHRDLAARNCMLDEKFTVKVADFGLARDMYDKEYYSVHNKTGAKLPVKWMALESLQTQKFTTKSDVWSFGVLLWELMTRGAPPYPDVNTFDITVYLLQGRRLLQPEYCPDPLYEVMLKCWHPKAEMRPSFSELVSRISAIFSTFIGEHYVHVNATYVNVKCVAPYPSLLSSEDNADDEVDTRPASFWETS
In experiment [3] the target is T2, dog MET on dMET-NIH3T3 cells (dog (Canis lupus, printed 'Cans lupus'), UniProt Q75ZY9 25-1382).
T2 construct: also called dMET-NIH13T3 [sic]
As to the kind of experiment: flow cytometry on dMET-NIH3T3 cells.

Experiment [4] deals with T3, His-tagged human MET protein (human, UniProt P08581 25-932).
T3 construct: Bought protein; also called hMET-His; not shown: His tag
T3 sequence (P08581 25-932 limits assumed): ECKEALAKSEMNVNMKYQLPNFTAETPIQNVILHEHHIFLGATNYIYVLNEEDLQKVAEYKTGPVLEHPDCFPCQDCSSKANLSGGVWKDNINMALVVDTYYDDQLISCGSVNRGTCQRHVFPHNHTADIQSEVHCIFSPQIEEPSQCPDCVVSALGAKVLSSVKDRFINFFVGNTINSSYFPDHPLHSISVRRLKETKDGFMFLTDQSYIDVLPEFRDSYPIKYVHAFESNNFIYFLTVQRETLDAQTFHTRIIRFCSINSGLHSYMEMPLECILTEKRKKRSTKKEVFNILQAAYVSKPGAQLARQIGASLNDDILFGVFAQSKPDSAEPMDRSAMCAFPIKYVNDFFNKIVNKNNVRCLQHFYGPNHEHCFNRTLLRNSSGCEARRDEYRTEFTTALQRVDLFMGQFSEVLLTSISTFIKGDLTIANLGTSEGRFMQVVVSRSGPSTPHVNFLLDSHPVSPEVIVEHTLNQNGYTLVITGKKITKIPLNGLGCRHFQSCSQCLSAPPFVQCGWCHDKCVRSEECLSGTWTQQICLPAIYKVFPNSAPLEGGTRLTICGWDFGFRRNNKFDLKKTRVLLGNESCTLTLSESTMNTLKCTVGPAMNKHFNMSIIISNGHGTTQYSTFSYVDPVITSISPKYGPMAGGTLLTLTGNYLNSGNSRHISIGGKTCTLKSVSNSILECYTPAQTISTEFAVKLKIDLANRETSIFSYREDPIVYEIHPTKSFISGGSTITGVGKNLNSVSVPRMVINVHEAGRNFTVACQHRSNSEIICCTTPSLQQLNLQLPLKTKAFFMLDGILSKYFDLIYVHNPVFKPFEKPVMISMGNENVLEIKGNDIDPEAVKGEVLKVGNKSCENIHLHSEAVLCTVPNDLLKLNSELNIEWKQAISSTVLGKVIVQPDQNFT
As to the kind of experiment: SPR (Biacore 8K), antibody on Protein A chip.

Experiment [5] deals with T4, His-tagged dog MET (dog, UniProt Q75ZY9 25-933, limits assumed).
T4 construct: Bought protein; also called dMET-His; not shown: His tag
As to the kind of experiment: SPR (Biacore 8K), antibody on Protein A chip.

Experiment [6] deals with T3, His-tagged human MET protein. As to the kind of experiment: SPR (Biacore 8K), Protein A chip. For orientation: Surface plasmon resonance follows binding to a sensor surface in real time, without labels.
Experiment [7] concerns the target T5, His-tagged monkey EGFR protein (monkey (crab-eating macaque; Macaca …, UniProt A0A2K5WK39 25-645).
T5 construct: also called fasEGFR-His; not shown: His tag
The experiment is described as follows: SPR (Biacore 8K), Protein A chip.

The target of experiment [8] is T6, His-tagged human EGFR protein (human, UniProt P00533 25-645).
T6 construct: Bought protein; also called hEGFR-His; not shown: His tag
The experiment is described as follows: SPR (Biacore 8K), Protein A chip.

The target in experiment [9] is T4, His-tagged dog MET. As to the kind of experiment: SPR (Biacore 8K), antibody on Protein A chip. This is another data set of the same source.
Experiment [10] has as its target T4, His-tagged dog MET. As to the kind of experiment: SPR (Biacore 8K), antibody on Protein A chip; legend: - means no binding.
For experiment [11], the target named is T2, dog MET on dMET-NIH3T3 cells. As to the kind of experiment: flow cytometry on dMET-NIH3T3 cells (1.44% positive cells).
The target in experiment [12] is T1, monkey MET on fasMET-NIH3T3 cells. As to the kind of experiment: flow cytometry on fasMET-NIH3T3 cells (0.18% positive cells).
The target of the next experiment is T7, human MET on SNU-5 cells (human, UniProt P08581 25-1390).
T7 construct: whole, on cells; Endogenous MET of SNU-5 cells
T7 sequence (P08581 25-1390): as the sequence (P08581 25-1390 limits assumed) above
The experiment is described as follows: flow cytometry on SNU-5 cells.

The target of experiment [13] is T3, His-tagged human MET protein. The experiment is described as follows: SPR (Biacore 8K), antibody on Protein A chip. The source holds these as a separate data set.
Experiment [14] has as its target T1, monkey MET on fasMET-NIH3T3 cells. The experiment is described as follows: flow cytometry on fasMET-NIH3T3 cells. This is another data set of the same source.
The target in experiment [15] is T2, dog MET on dMET-NIH3T3 cells. As to the kind of experiment: flow cytometry on dMET-NIH3T3 cells (5.33% positive cells).

Like-named read-outs stand apart in the source and are kept apart here.

T1 sequence (chain, as listed by the source limits assumed): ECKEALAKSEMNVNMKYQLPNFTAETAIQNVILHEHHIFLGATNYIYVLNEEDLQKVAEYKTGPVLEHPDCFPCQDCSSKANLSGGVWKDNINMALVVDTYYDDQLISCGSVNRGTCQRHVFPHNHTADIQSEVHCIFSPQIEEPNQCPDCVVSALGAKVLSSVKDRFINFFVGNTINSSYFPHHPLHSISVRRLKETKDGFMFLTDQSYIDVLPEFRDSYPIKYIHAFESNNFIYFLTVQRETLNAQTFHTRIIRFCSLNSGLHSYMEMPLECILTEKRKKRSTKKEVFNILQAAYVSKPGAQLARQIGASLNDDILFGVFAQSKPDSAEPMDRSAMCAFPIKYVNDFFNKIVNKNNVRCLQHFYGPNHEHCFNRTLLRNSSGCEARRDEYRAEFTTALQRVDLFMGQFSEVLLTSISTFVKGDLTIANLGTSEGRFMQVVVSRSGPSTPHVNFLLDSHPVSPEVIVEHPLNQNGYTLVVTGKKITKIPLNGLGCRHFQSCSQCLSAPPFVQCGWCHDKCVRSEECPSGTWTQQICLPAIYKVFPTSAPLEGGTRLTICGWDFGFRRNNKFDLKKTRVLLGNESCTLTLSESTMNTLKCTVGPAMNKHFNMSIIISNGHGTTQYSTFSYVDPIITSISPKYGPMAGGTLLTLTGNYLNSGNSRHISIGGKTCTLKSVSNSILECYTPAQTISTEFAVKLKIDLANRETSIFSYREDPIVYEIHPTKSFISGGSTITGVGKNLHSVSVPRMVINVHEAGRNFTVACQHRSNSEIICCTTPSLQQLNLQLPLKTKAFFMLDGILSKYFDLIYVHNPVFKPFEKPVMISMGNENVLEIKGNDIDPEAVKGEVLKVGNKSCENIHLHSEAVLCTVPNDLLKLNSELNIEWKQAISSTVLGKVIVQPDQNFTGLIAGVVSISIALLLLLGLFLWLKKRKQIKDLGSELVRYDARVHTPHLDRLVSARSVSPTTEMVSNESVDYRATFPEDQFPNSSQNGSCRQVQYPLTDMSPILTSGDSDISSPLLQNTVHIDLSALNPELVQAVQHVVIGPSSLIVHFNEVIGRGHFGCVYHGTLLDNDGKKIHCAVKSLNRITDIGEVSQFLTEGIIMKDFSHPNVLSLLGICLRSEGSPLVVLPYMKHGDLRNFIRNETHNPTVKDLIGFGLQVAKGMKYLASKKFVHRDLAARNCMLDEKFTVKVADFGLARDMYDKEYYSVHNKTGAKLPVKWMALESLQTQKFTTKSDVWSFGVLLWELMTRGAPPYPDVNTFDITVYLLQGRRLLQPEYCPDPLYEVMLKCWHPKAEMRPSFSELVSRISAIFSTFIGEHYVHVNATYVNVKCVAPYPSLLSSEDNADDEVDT

B1: M-6E6 (antibody, V domains shown)
VH: QVQLEQSGPTLVKPTQTLTLTCTFSGFSLSSTGVAMGWIRQPPGKALEWLALIYWDDDKHYSPSLESRLTITKDTFKNQVVLSMTNMDPLDTATYYCTHRRYTGYEDYWGQGILVTVSS
VL: not shown
In the case of B1, the “Percentage of Positive Cells” value in experiment [1] amounted to 49.2%; in experiment [2] it was 99.2%; in experiment [3] it was 73.2%. Also, the figures for the dissociation constant (Kd) (in [4]; with His-tagged dog MET [5]) were 10.1 nM and 253 nM, respectively. For the same molecule, the koff (usually the rate constant with which the complex falls apart) in experiment [4] stood at 0.000634 s⁻¹; with His-tagged dog MET [5], 0.0175 s⁻¹. Besides, the kon (as a rule, the second-order rate constant of association) in experiment [4] was determined as 62500 M⁻¹ s⁻¹; with His-tagged dog MET [5], 69000 M⁻¹ s⁻¹.

B2: Telisotuzumab analog (antibody, human IgG1, kappa, V domains shown)
VH: QVQLVQSGAEVKKPGASVKVSCKASGYIFTAYTMHWVRQAPGQGLEWMGWIKPNNGLANYAQKFQGRVTMTRDTSISTAYMELSRLRSDDTAVYYCARSEITTEFDYWGQGTLVTVSS
VL: DIVMTQSPDSLAVSLGERATINCKSSESVDSYANSFLHWYQQKPGQPPKLLIYRASTRESGVPDRFSGSGSGTDFTLTISSLQAEDVAVYYCQQSKEDPLTFGGGTKVEIKR
notes: Humanized IgG1 against MET
For the molecule B2, in [6], the Kd (usually the concentration at which binding is half-saturated) was found to be 0.972 nM, the koff worked out at 0.0001 s⁻¹ and the on-rate (kon) is 103000 M⁻¹ s⁻¹. For the same molecule, in [7], the binding result is recorded as “no binding (tested: antigen up to 400 nM)”. Further, in experiment [8], the binding result is listed as “no binding (tested: antigen up to 400 nM)”. Also, in the experiment with His-tagged dog MET [9], the binding result is on record as “no binding”.

B3: M-8E2 (antibody, V domains shown)
VH: QVQLVQSGPALVKPTQTLTLTCTFSGFSLYTSGVAVAWIRQPPGKALEWLALIYWDDDKWYTPSLKTRLSITKDTSKNQVVLTMTNMDPVDTATYYCAHRGSFNWNYGYFDYWGQGTLVTVSS
VL: not shown
Regarding B3, the “Percentage of Positive Cells” value turned out to be 62.2% in experiment [1], 99.6% in experiment [2] and 78.8% in experiment [3]. Also, the dissociation constant (Kd) in [4] came out at 13.1 nM; with His-tagged dog MET [5], 50 nM. For the same molecule, the values for the koff (in [4]; with His-tagged dog MET [5]) were 0.000683 s⁻¹ and 0.00384 s⁻¹, respectively. Also, the on-rate constant (kon) worked out at 52200 M⁻¹ s⁻¹ in experiment [4] and 76900 M⁻¹ s⁻¹ in the experiment with His-tagged dog MET [5].

B4: M-8H10 (antibody, V domains shown)
VH: QVQLQQWGAGLLKPSETLSLTCAVYGGSFSGYYWTWIRQPPGKGLEWIGESNHGGSTNFNPSLKSRVTISVDTSKNHFSLKLSPVTAADTAVYYCTRGGTIFGLKDAFDIWGQGTMVTVSS
VL: not shown
Turning to B4, the “Percentage of Positive Cells” value in experiment [1] was 67.8%. Also, the binding result with His-tagged dog MET [10] is recorded as “no binding”. The binding result in experiment [11] is on record as “no binding”. Further, the “Percentage of Positive Cells” value in experiment [2] was 99.8%. In experiment [4], this molecule gave a Kd of 19.9 nM, a dissociation rate constant (koff) of 0.00138 s⁻¹ and a kon of 69700 M⁻¹ s⁻¹.

B5: M-2F12 (antibody, V domains shown)
VH: QVQLVQSGGGVVQPGRSLRLSCAASGFTFNNYGMDWVRQAPGKGLEWVAVIWNDGSKKYYGDFVKGRFTISRDNSKNTLYLEMNSLRAEDTAVYYCARDLEGGQLADAFDVWGQGTMVTVSS
VL: not shown
As for B5, in experiment [12], the binding result was “no binding”. In addition, the “Percentage of Positive Cells” value with human MET on SNU-5 cells is 95.6%.

B6: M-2G10 (antibody, V domains shown)
VH: EVQLVESGGGVVQPGRSLRLSCAASGFTFNICGIHWVRQAPGKGLEWVATISHDANDKYYADSVKGRFTISRDNSKNTLYLQMNSLRAEDTAVYYCARDGNRGYDGYFDYWGQGTLVTVSS
VL: not shown
On to B6, for which the results for the dissociation constant Kd in [6] and in experiment [13] were 63.6 nM and 31.9 nM, respectively. The dissociation rate constant (koff) turned out to be 0.00362 s⁻¹ in [6] and 0.00605 s⁻¹ in experiment [13]. The results for the kon in experiment [6] and in experiment [13] were 57000 M⁻¹ s⁻¹ and 189000 M⁻¹ s⁻¹, respectively. The binding result in experiment [7] and in experiment [8] was “no binding (tested: antigen up to 400 nM)” each time. Also, the results for the “Percentage of Positive Cells” value (with human MET on SNU-5 cells; in [14]) were 98.7% and 21%, respectively.

B7: M-6D12 (antibody, V domains shown)
VH: QVQLQQSGPGLVKPSGTLSLTCAVSGGSISKSNWWTWVRQPPGKGLEWIGEIHHSGSTNYNPSLKSRVTISVEKTKNQFSLKLSSVTAADTAVYYCARGGGYGYDFDYWGQGTLVTVSS
VL: not shown
In the case of B7, in [1], the “Percentage of Positive Cells” value turned out to be 71.4%. Further, the binding result with His-tagged dog MET [10] is on record as “no binding”. In experiment [2], the “Percentage of Positive Cells” value is 99.8%. The binding result in experiment [15] was “no binding”. In addition, in experiment [4], the equilibrium dissociation constant (Kd) came out at 60.6 nM, the koff came out at 0.00237 s⁻¹ and the kon is 39100 M⁻¹ s⁻¹.

B8: M-7D3 (antibody, V domains shown)
VH: QVQLVQSGLTLVKPTQTLTLTCTFSGFSLSTTGVSVGWIRQPPGKALEWLALIYWDDDKHYSPSLKSRLTITKDTSKNQVVLTMTNMDPVDTATYYCAPGGYSSGWPGFYDLWGRGTLVTVSS
VL: not shown
As for B8, the “Percentage of Positive Cells” value in experiment [1] was 63.4%; in experiment [2], 99.6%; in [3] it was 74.7%. Also, the Kd in experiment [4] came out at 11.6 nM; with His-tagged dog MET [5], 62.3 nM. The off-rate constant (koff) was 0.000684 s⁻¹ in [4] and 0.00343 s⁻¹ with His-tagged dog MET [5]. For the same molecule, the kon in experiment [4] worked out at 59100 M⁻¹ s⁻¹; with His-tagged dog MET [5], 55000 M⁻¹ s⁻¹.

B9: M-1E9 (antibody, V domains shown)
VH: QVQLQQWGAGLLKPSETLSLTCVVFGGSFSGYYWSWIRQPPGKGLEWIGEINHSGSTNYNPSLKSRVTVSVDTSKKQFSLNLRSVTAADTAVYYCARGRGIAAAGTYFDYWGQGNLVTVSS
VL: not shown
For B9, in experiment [13], the equilibrium dissociation constant (Kd) was 30.1 nM, the off-rate constant (koff) was 0.000698 s⁻¹ and the on-rate (kon) amounted to 23200 M⁻¹ s⁻¹. The “Percentage of Positive Cells” value with human MET on SNU-5 cells stood at 99.3%. The “Percentage of Positive Cells” value in experiment [14] was 48.8%.

B10: M-2F11 (antibody, V domains shown)
VH: EVQLVESGPGLVKPSETLSLTCTVSGGSISSNYWSWIRQPPGKGLEWIGYIYHSGSTNYNPSLKSRVTISVDTSKNQFSLKLSSVTAADTAVYFCARGPVSIFGVVKYIDLWGRGTLVTVSS
VL: not shown
B10: the Kd in experiment [6] amounted to 55.6 nM; in experiment [13] it was 54.2 nM. Moreover, the dissociation rate constant (koff) was 0.0022 s⁻¹ in [6] and 0.00313 s⁻¹ in experiment [13]. Also, the kon came out at 39600 M⁻¹ s⁻¹ in experiment [6] and 57700 M⁻¹ s⁻¹ in experiment [13]. Besides, the binding result in experiment [7] and in experiment [8] was “no binding (tested: antigen up to 400 nM)” each time. The “Percentage of Positive Cells” value amounted to 97.1% in the experiment with human MET on SNU-5 cells and 71.1% in experiment [14].
